# Results reported in patent US20240383958A1, “APELIN RECEPTOR AGONISTS AND USES THEREOF” (VISTERRA, INC., priority 2023, published 2024).
# Assays:
# [1] = biological target: T1, apelin receptor (Homo sapiens, UniProt P35414); settings: human heart; cited from earlier work
# T1 construct: host or cells: human heart tissue
# T1 sequence (P35414 1-380): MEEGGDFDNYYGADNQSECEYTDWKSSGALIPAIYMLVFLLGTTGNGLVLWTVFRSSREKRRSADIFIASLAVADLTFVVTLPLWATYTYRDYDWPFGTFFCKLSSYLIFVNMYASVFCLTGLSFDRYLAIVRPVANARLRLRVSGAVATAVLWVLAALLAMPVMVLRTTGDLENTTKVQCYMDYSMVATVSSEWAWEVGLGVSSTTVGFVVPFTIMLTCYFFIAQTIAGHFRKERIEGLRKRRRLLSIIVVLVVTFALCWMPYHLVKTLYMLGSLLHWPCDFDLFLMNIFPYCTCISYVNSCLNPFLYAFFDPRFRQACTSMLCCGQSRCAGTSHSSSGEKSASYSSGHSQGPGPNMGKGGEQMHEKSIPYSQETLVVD
# [2] = biological target: T2, apelin receptor (AGTRL1) (Homo sapiens, UniProt P35414); experiment: PathHunter beta-arrestin signaling assay; type: cell-based; settings: PathHunter CHO-K1 AGTRL1 β-arrestin cells
# T2 construct: host or cells: CHO-K1
# T2 sequence (P35414 1-380): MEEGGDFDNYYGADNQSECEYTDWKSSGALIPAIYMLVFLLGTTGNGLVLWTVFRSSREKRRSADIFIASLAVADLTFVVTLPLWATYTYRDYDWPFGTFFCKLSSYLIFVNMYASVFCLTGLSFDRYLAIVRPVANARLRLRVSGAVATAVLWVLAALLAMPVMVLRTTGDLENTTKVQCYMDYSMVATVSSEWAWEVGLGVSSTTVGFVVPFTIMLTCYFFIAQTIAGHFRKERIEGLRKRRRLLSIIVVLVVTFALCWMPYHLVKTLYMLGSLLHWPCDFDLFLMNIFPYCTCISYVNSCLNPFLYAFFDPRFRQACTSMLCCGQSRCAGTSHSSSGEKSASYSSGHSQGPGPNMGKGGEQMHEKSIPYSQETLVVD
# Experimental: In this example, commercially available HitHunter® cAMP assay was used to determine the effect of apelin receptor agonists on Gai signaling, measured cAMP depletion. Next, commercially available PathHunter® beta-arrestin assay was used to determine the effect of apelin receptor agonists on beta-arrestin signaling. Additionally, the effect of apelin receptor agonists on ERK signaling was determined.
# In a 384-well plate (Corning #3897), PathHunter® CHO-K1 AGTRL1 β-arrestin cells (Eurofins DiscoverX #93-0250C2) were seeded at 5×10^3 cells/well in 20 μL AssayComplete Cell Plating 2 Reagent (Eurofins DiscoverX #93-0563R2A) and were incubated overnight at 37° C. with 5% CO2. On the following day, the plate was treated with 5 μL/well of compounds serially diluted in 1×PBS+0.1% BSA buffer and was incubated for 1.5 hr at 37° C. with 5% CO2. Then, 12.5 μL/well of detection solution was added, prepared as instructed in the PathHunter® Detection Kit (Eurofins DiscoverX #93-0001), the plate was wrapped in foil, and was incubated at room temperature. Plates were read after 1-2 hr of incubation on a standard luminescence plate reader. In this assay, low levels of β-arrestin in cells were directly related to low luminescence signal. Using Four Parameter Logistic Regression for curve fitting, the raw data file was processed into S-shaped dose-response curves from which values, such as the EC50, Hill Slope, and Emax, were quantified.
# [3] = Proteolysis during production detected using mass spectroscopy; type: physicochemical; settings: proteolytic stability
# From the text: Proteolysis during production was detected using mass spectroscopy, which provides insights into the proteolytic stability of the apelin receptor agonists.
# [4] = test system: APJ-eGFP fusion protein; experiment: Internalization assay, CHO-M1 cells expressing APJ-eGFP, high-content imaging; type: cell-based; design: key: 0: No Internalization; >1000; 2: 100-1000; 3: 10-100; 4: <10; settings: lowest concentration at which maximum internalization was observed; 0.914 nM to 2000 nM
# Experimental: In this example, the internalization of exemplary apelin receptor agonist was assessed. CHO-M1 cells expressing an APJ-eGFP fusion protein were stained and plated in a 96-well plate. Apelin receptor agonists were serially diluted and added to the wells at concentrations ranging from 0.914 nM to 2000 nM. The cells were later imaged using an Operetta CLS™ high-content analysis system. APJ-eGFP signal was measured in the membrane and cytoplasmic region, and the ratio of membrane signal to total signal was calculated (E ratio). An internalization score was assigned based on the lowest concentration of the compound at which maximum internalization was observed. The internalization score for each apelin receptor agonist was plotted against the EC50 values for cAMP signaling and beta-arrestin signaling as shown in FIG. 2 and FIG. 3.
Molecule,affinity for the apelin receptor [1],beta-Arrestin EC50 (nM) Exp. 1 [2],Proteolysis During Production? [3],Internalization Score [4],beta-Arrestin EC50 (nM) Exp. 2 ([2]; Exp. 2)
elabela-21,nanomolar affinity,,,,
ELA-D: Fc-linker fusion of elabela analogue KLRKHNCLQRRCMPLHQRVPFP (S17Q) (protein) MRAWIFFLLCLAGRALADKTHTSPPSPAPEAAGGPSVFLFPPKPKDTLMISRTPEVTCVVVDVSHEDPEVKFNWYVDGVEVHNAKTKPREEQYNSTYRVVSVLTVLHQDWLNGKEYKCKVSNKALPAPIEKTISKAKGQPREPQVYTLPPSREEMTKNQVNLTCLVKGFYPSDIAVEWESNGQPENNYKTTPPVLDSDGSFFLNSTLTVDKSRWQQGNVFSCSVMHEALHNHYTQKSLSLSPGKGGGGSGGGGSGGGGSKLRKHNCLQRRCMPLHQRVPFP,,Weak,No,1 (>1000),
ELA-E: Fc-linker fusion of elabela analogue KLRKHNCLQRRCMPLHRRVPFP (S17R) (protein) MRAWIFFLLCLAGRALADKTHTSPPSPAPEAAGGPSVFLFPPKPKDTLMISRTPEVTCVVVDVSHEDPEVKFNWYVDGVEVHNAKTKPREEQYNSTYRVVSVLTVLHQDWLNGKEYKCKVSNKALPAPIEKTISKAKGQPREPQVYTLPPSREEMTKNQVNLTCLVKGFYPSDIAVEWESNGQPENNYKTTPPVLDSDGSFFLNSTLTVDKSRWQQGNVFSCSVMHEALHNHYTQKSLSLSPGKGGGGSGGGGSGGGGSKLRKHNCLQRRCMPLHRRVPFP,,Weak,No,0,
ELA-J: Fc-linker fusion of elabela analogue KLRKHNCLQERCMPLHSRVPFP (R10E) (protein) MRAWIFFLLCLAGRALADKTHTSPPSPAPEAAGGPSVFLFPPKPKDTLMISRTPEVTCVVVDVSHEDPEVKFNWYVDGVEVHNAKTKPREEQYNSTYRVVSVLTVLHQDWLNGKEYKCKVSNKALPAPIEKTISKAKGQPREPQVYTLPPSREEMTKNQVNLTCLVKGFYPSDIAVEWESNGQPENNYKTTPPVLDSDGSFFLNSTLTVDKSRWQQGNVFSCSVMHEALHNHYTQKSLSLSPGKGGGGSGGGGSGGGGSKLRKHNCLQERCMPLHSRVPFP,,,Yes,,Weak
